Source: patent US20180280504A1, “GLYCAN-INTERACTING COMPOUNDS AND METHODS OF USE” (SIAMAB THERAPEUTICS, INC., priority 2014, published 2018)

Tests used:
[1] = E3-STn allograft model, second round study, average body weight
Method: 50 female Balb/cmice were inoculated with E3-STn cells to cause STn-expressing tumor formation when they were 5 weeks old. Mice were housed in individually ventilated microisolator cages, and maintained under pathogen-free conditions with irradiated feed and autoclaved water. […] Beginning on the first day of the study, body weight and tumor volumes were recorded twice weekly. 33 mice with mean tumor volume between 100 and 150 mm^3 were selected for randomization.
The average weight of mice in each treatment group was also determined on days 1, 5, 8, 12, 15,19, 22, 26, 29, 33, 36, 40, 43, 47 and 50 following the first administration of each test article (see the following Table). The percent gain or loss over initial weight values is listed in parentheses.

[2] = Immunohistochemical staining of normal and tumor tissues (TMA); settings: tissue microarray slides
Method: The procedure for IHC staining includes the following steps: a). obtain tissue samples and prepare specimen slides; b). prepare tissue samples for IHC staining; i. perform antigen retrieval with Diva antigen retrieval solution for 30 minutes at 95° C.; or treat slides with 250 mU/mL neuraminidase in 50 mM sodium acetate, pH 5.5 for 2.5 hours at 37° C.; ii. rinse all treated slides twice with Tris-buffered saline auto-wash (TBS-AW); iii. apply Sniper protein block to all slides for 20 minutes to reduce non-specific binding and rinse twice in TBS-AW; c). perform antibody staining; i. incubate the pretreated slides with the primary antibody. For example, anti-STn antibody S3F is applied (10 or 30 ug/mL) for 60 minutes; ii. rinse twice in TBS-AW; iii. block endogenous peroxidase with peroxidase 1 for 10 minutes; iv. rinse twice with TBS-AW; v. incubate the slides with biotinylated goat anti-mouse IgG in DaVinci Green at 1:500 dilution for 30 minutes; vi. rinse twice with TBS-AW. d). develop the staining; i. add ABC Elite and incubate the slides for 30 minutes; ii. rinse twice with TBS-AW; iii. apply Sigma Fast DAB solution for 5 minutes followed by a rinse in distilled water; iv. counterstain and coverslip the slides for analysis. […]

MDA-MD-231 STn− cells = assay: Fluorescence microscopy of ALEXA FLUOR 488-S3F binding and internalization, STn− cells; format: cell-based, human
Method: To analyze the internalization of antibodies by fluorescence microscopy, the following procedure was carried out. MDA-MD-231 STn− cells and MDA-MD-231 STn+ cells were cultured in Eagles minimum essential medium containing 10% fetal calf serum, 100 μg/ml penicillin, 100 UI/ml streptomycin, 45 μg/ml gentamycin, as well as 1 mg/ml G418 for STn+ cells. Cells were sub-cultured by treatment with Accutase buffer and seeded in microscope chamber slides at 10,000 cells/chamber in the case of STn− cells and 20,000 cells/chamber in the case of STn+ cells. All cells were cultured overnight at 37° C. Cells were subsequently incubated with either 1.5, 5 or 10 μg/ml S3F conjugated with ALEXA FLUOR® 488 dye (Thermo Fisher Scientific, Pittsburgh, Pa.) in complete media at 4° C. for 1 hour. Cells were then washed with ice-cold PBS in order to remove antibodies that were not bound to the cell surface. Complete media was then administered to each chamber and the cells were incubated at 37° C. for either 0, 15, 30 or 60 minutes in order to allow internalization of any surface-bound antibodies.
Following each time point, cells were washed twice with PBS in order to remove unbound antibodies. […] Cells were visualized the following day by analysis on a Nikon Eclipse Ti fluorescence microscope.

[3] = Glycan array, 9-O-acetylated AcSTn; format: binding; settings: glycan microarray, Cy3 anti-mouse IgG
Method: Optimized glycan arrays comprise 71 chemically synthesized and well-defined glycans, most of which comprise Neu5Ac and Neu5Gc glycan pairs.
300 ml of epoxy blocking buffer is prepared by combining 15 ml of 2 M Tris buffer (pH 8) with 0.9 ml of 16.6 M ethanolamine and 284.1 ml of distilled water. The solution was brought to a final pH of 9.0 with HCl. The solution is filtered using a 0.2 μM nitrocellulose membrane. The epoxy buffer solution as well as 1 L of distilled water are pre-warmed to 50° C. Glass slides are arranged in a slide holder and quickly submerged in a staining tub with the warmed epoxy blocking buffer. Slides are incubated in the epoxy blocking buffer for 1 hour at 50° C. with periodic shaking to deactivate epoxy binding sites. Next, slides are rinsed and blocked with PBS with 1% OVA at 25° C. for one hour. Serum samples with polyclonal antibodies (1:1000) or purified monoclonal antibodies (1 ug/mL), are diluted in PBS with 1% OVA and added to the glycan array for one hour at 25° C. After extensive washing, binding of antibodies are detected by incubating glycan microarray slides with Cy3-conjugated anti-mouse IgG (Jackson Immunoresearch, West Grove, Pa.) for one hour. Slides are then washed extensively, dried and scanned with a Genepix 4000B scanner (Laser at 100%; gain at 350; 10 μm pixels). […]

B1: 7G9: anti-STn mouse monoclonal, IgG2b κ, from mouse #4407; VH SEQ ID NO: 12, VL SEQ ID NO: 9 (antibody, V domains shown)
VH: QVQLKESGPGLVAPSQNLSITCTVSGFSLTSYGVNWVRQPPGKGLEWLGVIWGDGSTNYHSALISRLIISKENSKSQVFLKLNSLQTNDTATYYCTKGFVYWGQGTLVTVSA
VL: QIVLTQSPAIMSASPGEKVTMTCSASSSVSYMHWYQQKSGTSPKRWIFDTSKLASGVPARFSGSGSGTSYSLTISSMEAEDAATYYCQQWSSNLLTFGAGTKLELK
[1]; day 1 of study
  Average Weight: 18.3 g
[1]; day 5 of study
  Average Weight: 18.7 g
  percent gain or loss over initial weight: (2.4) %
[1]; day 8 of study
  Average Weight: 19.4 g
  percent gain or loss over initial weight: (6.5) %
[1]; day 12 of study
  Average Weight: 20.1 g
  percent gain or loss over initial weight: (10.1) %
[1]; day 15 of study
  Average Weight: 20.4 g
  percent gain or loss over initial weight: (12.0) %
[1]; day 19 of study
  Average Weight: 20.9 g
  percent gain or loss over initial weight: (14.3) %
[1]; day 22 of study
  Average Weight: 20.8 g
  percent gain or loss over initial weight: (14.1) %
[1]; day 26 of study
  Average Weight: 21.5 g
  percent gain or loss over initial weight: (17.8) %
[1]; day 29 of study
  Average Weight: 22.1 g
  percent gain or loss over initial weight: (21.1) %
[1]; day 33 of study
  Average Weight: 22.2 g
  percent gain or loss over initial weight: (21.4) %
[1]; day 36 of study
  Average Weight: 22.1 g
  percent gain or loss over initial weight: (21.0) %
[1]; day 40 of study
  Average Weight: 22.8 g
  percent gain or loss over initial weight: (25.0) %
[1]; day 43 of study
  Average Weight: 22.9 g
  percent gain or loss over initial weight: (25.4) %
[1]; day 47 of study
  Average Weight: 22.8 g
  percent gain or loss over initial weight: (25.0) %
[1]; day 50 of study
  Average Weight: 23.8 g
  percent gain or loss over initial weight: (30.2) %
[1]; second round study
  percent gain in weight as compared to vehicle control: higher percent gain in weight

B2: S3F: 3F1 variable domains combined with IgG2a constant domains; heavy chain SEQ ID NO: 63, light chain SEQ ID NO: 64 (antibody)
heavy: QVQLQQSDAELVKPGASVKISCKASGYTFTDHAIHWVKQKPEQGLDWIGYISPGNGDIKYNEKFKDKVTLTADKSSSTACMHLNSLTSEDSAVYFCKRSLLALDYWGQGTTLTVSSAKTTAPSVYPLAPVCGDTTGSSVTLGCLVKGYFPEPVTLTWNSGSLSSGVHTFPAVLQSDLYTLSSSVTVTSSTWPSQSITCNVAHPASSTKVDKKIEPRGPTIKPCPPCKCPAPNLLGGPSVFIFPPKIKDVLMISLSPIVTCVVVDVSEDDPDVQISWFVNNVEVHTAQTQTHREDYNSTLRVVSALPIQHQDWMSGKEFKCKVNNKDLPAPIERTISKPKGSVRAPQVYVLPPPEEEMTKKQVTLTCMVTDFMPEDIYVEWTNNGKTELNYKNTEPVLDSDGSYFMYSKLRVEKKNWVERNSYSCSVVHEGLHNHHTTKSFSRTPGK
light: DIVMTQSHKFMSTSVGDRVSITCKASQDVGTNIAWYQQKPGRSPKVLIYSASTRHTGVPDRFTGSGSGTDFTLTISNVQSEDLTDYFCQQYSSFPLTFGVGTKLELKRADAAPTVSIFPPSSEQLTSGGASVVCFLNNFYPKDINVKWKIDGSERQNGVLNSWTDQDSKDSTYSMSSTLTLTKDEYERHNSYTCEATHKTSTSPIVKSFNRNEC
[2]
  IHC staining pattern, cancerous tissues: STn was present in most cancerous tissues
  IHC staining pattern, normal tissues: STn expression was rare in normal tissues
MDA-MD-231 STn− cells; 37° C. 15-60 min, acid wash
  internalization by STn− cells: not efficiently internalized by STn− cells
MDA-MD-231 STn− cells; 488-S3F conjugate at 1.5, 5, 10 μg/ml, 4° C.
  binding to the surface of STn− cells: does not bind the surface of STn− cells

B3: 18C7: anti-STn mouse monoclonal, IgG2c κ, from mouse #4436; VH SEQ ID NO: 4, VL SEQ ID NO: 5 (antibody, V domains shown)
VH: QVTLKESGPGILQPSQTLSLTCSFSGFSLSTFGMGVGWIRQPSGKGLEWLAHIWWDDDKYYNPALKSRLTISKDTSKNQVFLKIANVDTADTATYYCARIAYYYGSERDYWGQGTTLTVSS
VL: QIVLTQSPAIMSASPGEKVTMTCSASSSISYMHWYHQKPGTSPKRWIYDTSKLASGVPARFSGSGSGTSYSLTISSMEAEDAATYYCHQRSSYTFGGGTKLEIKR
[3]
  mean fluorescence intensity, Neu5,9Ac2-α2,6-GalNAc: about 4,500
